Test results published in the supplement of paper PMC9112550, “Optimization of the antimicrobial peptide Bac7 by deep mutational scanning” (BMC Biology, 2022).

Test system: Escherichia coli TOP10
Assay: shrunken log2 fold change of peptide-encoding DNA abundance (4.5 h post-induction vs induction); higher = less antimicrobial activity (less host growth inhibition)
Conditions: time post-induction: 4.5 h; library: site-saturation at positions 5, 18, 19, 20
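Further: peptides expressed intracellularly from a pBAD plasmid library in pooled LB shake-flask culture, induced with 0.3% L-arabinose, DNA abundance read by NGS, three biological replicates, DESeq2 with apeglm shrinkage.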

RRIRQRPPRLPRPRPRPHMPPRP
shrunken log2 fold change: -0.0493

RRIRRRPPRLPRPRPRPRDPPRP
shrunken log2 fold change: 0.74

RRIRYRPPRLPRPRPRPMGAPRP
shrunken log2 fold change: -0.207

RRIRQRPPRLPRPRPRPLFHPRP
shrunken log2 fold change: -0.733

RRIRGRPPRLPRPRPRPDHRPRP
shrunken log2 fold change: -0.178

RRIRQRPPRLPRPRPRPTQRPRP
shrunken log2 fold change: 0.548

RRIRCRPPRLPRPRPRPHQMPRP
shrunken log2 fold change: -0.691

RRIRDRPPRLPRPRPRPNFTPRP
shrunken log2 fold change: -0.0368

RRIRKRPPRLPRPRPRPKDPPRP
shrunken log2 fold change: 0.367

RRIRIRPPRLPRPRPRPSVPPRP
shrunken log2 fold change: -0.835

RRIRHRPPRLPRPRPRPICYPRP
shrunken log2 fold change: -0.178

RRIRYRPPRLPRPRPRPKELPRP
shrunken log2 fold change: -0.0199

RRIRMRPPRLPRPRPRPNCEPRP
shrunken log2 fold change: 0.247

RRIRMRPPRLPRPRPRPDRRPRP
shrunken log2 fold change: -0.0127

RRIRARPPRLPRPRPRPAPTPRP
shrunken log2 fold change: 0.838

RRIRSRPPRLPRPRPRPQFQPRP
shrunken log2 fold change: -0.124

RRIRQRPPRLPRPRPRPDMTPRP
shrunken log2 fold change: -0.129

RRIRERPPRLPRPRPRPIADPRP
shrunken log2 fold change: 0.13

RRIRPRPPRLPRPRPRPSKRPRP
shrunken log2 fold change: -0.00797

RRIRYRPPRLPRPRPRPMRYPRP
shrunken log2 fold change: -0.114

RRIRWRPPRLPRPRPRPLSNPRP
shrunken log2 fold change: -0.252

RRIRRRPPRLPRPRPRPYSAPRP
shrunken log2 fold change: -0.137

RRIRWRPPRLPRPRPRPMIWPRP
shrunken log2 fold change: 0.0116

RRIRCRPPRLPRPRPRPVCSPRP
shrunken log2 fold change: -0.0747

RRIRRRPPRLPRPRPRPYPVPRP
shrunken log2 fold change: 0.0514

RRIRDRPPRLPRPRPRPTRPPRP
shrunken log2 fold change: 1.13

RRIRHRPPRLPRPRPRPPWIPRP
shrunken log2 fold change: 0.0139

RRIRFRPPRLPRPRPRPNPLPRP
shrunken log2 fold change: 0.0861

RRIRHRPPRLPRPRPRPYKQPRP
shrunken log2 fold change: -0.0238

RRIRMRPPRLPRPRPRPKSRPRP
shrunken log2 fold change: 0.0662

RRIRDRPPRLPRPRPRPEPHPRP
shrunken log2 fold change: 0.533

RRIRYRPPRLPRPRPRPNGVPRP
shrunken log2 fold change: 0.0238

RRIRRRPPRLPRPRPRPHRSPRP
shrunken log2 fold change: -0.00354

RRIRHRPPRLPRPRPRPDIHPRP
shrunken log2 fold change: -0.171

RRIRARPPRLPRPRPRPLCAPRP
shrunken log2 fold change: 0.704

RRIRSRPPRLPRPRPRPMHYPRP
shrunken log2 fold change: -0.224

RRIRDRPPRLPRPRPRPANWPRP
shrunken log2 fold change: 0.239

RRIRYRPPRLPRPRPRPSTQPRP
shrunken log2 fold change: -0.641

RRIRRRPPRLPRPRPRPWVFPRP
shrunken log2 fold change: -0.106

RRIRPRPPRLPRPRPRPAEDPRP
shrunken log2 fold change: -0.114

RRIRMRPPRLPRPRPRPDGLPRP
shrunken log2 fold change: 0.143

RRIRARPPRLPRPRPRPGQMPRP
shrunken log2 fold change: 0.0151

RRIRMRPPRLPRPRPRPWITPRP
shrunken log2 fold change: -0.00122

RRIRWRPPRLPRPRPRPTTHPRP
shrunken log2 fold change: 0.163

RRIRDRPPRLPRPRPRPYQRPRP
shrunken log2 fold change: 0.058

RRIRGRPPRLPRPRPRPHQQPRP
shrunken log2 fold change: 0.101

RRIRNRPPRLPRPRPRPNNSPRP
shrunken log2 fold change: -0.376

RRIRMRPPRLPRPRPRPICCPRP
shrunken log2 fold change: -0.00414

RRIRNRPPRLPRPRPRPLSWPRP
shrunken log2 fold change: 0.235

RRIRRRPPRLPRPRPRPATSPRP
shrunken log2 fold change: 0.0892

RRIRFRPPRLPRPRPRPVCEPRP
shrunken log2 fold change: 0.182

RRIRGRPPRLPRPRPRPRMAPRP
shrunken log2 fold change: 1.06

RRIRPRPPRLPRPRPRPVANPRP
shrunken log2 fold change: 0.495

RRIRLRPPRLPRPRPRPEKDPRP
shrunken log2 fold change: 0.191

RRIRIRPPRLPRPRPRPGSWPRP
shrunken log2 fold change: 0.227

RRIRWRPPRLPRPRPRPDKYPRP
shrunken log2 fold change: -0.126

RRIRMRPPRLPRPRPRPEQMPRP
shrunken log2 fold change: 2.44

RRIRRRPPRLPRPRPRPKASPRP
shrunken log2 fold change: 0.183

RRIRGRPPRLPRPRPRPDHNPRP
shrunken log2 fold change: 0.0326

RRIRARPPRLPRPRPRPFCSPRP
shrunken log2 fold change: -0.0878

RRIRLRPPRLPRPRPRPKYRPRP
shrunken log2 fold change: 0.0356

RRIRKRPPRLPRPRPRPTCYPRP
shrunken log2 fold change: 0.0572

RRIRERPPRLPRPRPRPKGKPRP
shrunken log2 fold change: -0.0014

RRIRQRPPRLPRPRPRPILSPRP
shrunken log2 fold change: 0.0165

RRIRNRPPRLPRPRPRPGSDPRP
shrunken log2 fold change: -0.0348

RRIRPRPPRLPRPRPRPEACPRP
shrunken log2 fold change: 0.321

RRIRLRPPRLPRPRPRPHKPPRP
shrunken log2 fold change: 0.119

RRIRYRPPRLPRPRPRPFYPPRP
shrunken log2 fold change: -0.747

RRIRRRPPRLPRPRPRPPYGPRP
shrunken log2 fold change: 0.0935

RRIRHRPPRLPRPRPRPQFPPRP
shrunken log2 fold change: -0.157

RRIRGRPPRLPRPRPRPHGEPRP
shrunken log2 fold change: 0.164

RRIRHRPPRLPRPRPRPWLMPRP
shrunken log2 fold change: -0.12

RRIRARPPRLPRPRPRPQKYPRP
shrunken log2 fold change: -0.363

RRIRMRPPRLPRPRPRPPTNPRP
shrunken log2 fold change: 0.949

RRIRGRPPRLPRPRPRPSIEPRP
shrunken log2 fold change: 0.36

RRIRWRPPRLPRPRPRPNIYPRP
shrunken log2 fold change: -0.307

RRIRIRPPRLPRPRPRPCTNPRP
shrunken log2 fold change: -0.0668

RRIRTRPPRLPRPRPRPNFYPRP
shrunken log2 fold change: -0.186

RRIRHRPPRLPRPRPRPTNNPRP
shrunken log2 fold change: -0.467

RRIRGRPPRLPRPRPRPFECPRP
shrunken log2 fold change: 0.0132

RRIRSRPPRLPRPRPRPKYKPRP
shrunken log2 fold change: -0.422

RRIRSRPPRLPRPRPRPIMMPRP
shrunken log2 fold change: -0.0828

RRIRGRPPRLPRPRPRPRQGPRP
shrunken log2 fold change: 0.654

RRIRNRPPRLPRPRPRPSAEPRP
shrunken log2 fold change: 0.113

RRIRSRPPRLPRPRPRPQSLPRP
shrunken log2 fold change: -0.232

RRIRQRPPRLPRPRPRPFSTPRP
shrunken log2 fold change: 0.0344

RRIRERPPRLPRPRPRPLESPRP
shrunken log2 fold change: -0.0735

RRIRQRPPRLPRPRPRPEICPRP
shrunken log2 fold change: 0.0414

RRIRDRPPRLPRPRPRPQLPPRP
shrunken log2 fold change: 0.186

RRIRSRPPRLPRPRPRPTMVPRP
shrunken log2 fold change: 0.0872

RRIRDRPPRLPRPRPRPTMKPRP
shrunken log2 fold change: 0.192

RRIRFRPPRLPRPRPRPYSHPRP
shrunken log2 fold change: -1.77

RRIRMRPPRLPRPRPRPFTVPRP
shrunken log2 fold change: -0.00884

RRIRIRPPRLPRPRPRPSIPPRP
shrunken log2 fold change: -0.867

RRIRWRPPRLPRPRPRPAQDPRP
shrunken log2 fold change: 0.415

RRIRHRPPRLPRPRPRPKPLPRP
shrunken log2 fold change: 0.127

RRIRMRPPRLPRPRPRPFNYPRP
shrunken log2 fold change: -0.559

RRIRGRPPRLPRPRPRPYMLPRP
shrunken log2 fold change: -0.0745

RRIRDRPPRLPRPRPRPGSPPRP
shrunken log2 fold change: 0.0355

RRIRFRPPRLPRPRPRPDYCPRP
shrunken log2 fold change: -0.127

RRIRWRPPRLPRPRPRPALWPRP
shrunken log2 fold change: 0.53

RRIRNRPPRLPRPRPRPKCQPRP
shrunken log2 fold change: 0.0753

RRIRKRPPRLPRPRPRPIDEPRP
shrunken log2 fold change: -0.148

RRIRPRPPRLPRPRPRPIDRPRP
shrunken log2 fold change: -0.00145

RRIRHRPPRLPRPRPRPREFPRP
shrunken log2 fold change: 0.0275

RRIRFRPPRLPRPRPRPCWAPRP
shrunken log2 fold change: 0.105

RRIRFRPPRLPRPRPRPTSFPRP
shrunken log2 fold change: 0.0329

RRIRARPPRLPRPRPRPEQLPRP
shrunken log2 fold change: 1.47

RRIRIRPPRLPRPRPRPGPHPRP
shrunken log2 fold change: 0.0135

RRIRKRPPRLPRPRPRPQIDPRP
shrunken log2 fold change: 0.00239

RRIRDRPPRLPRPRPRPCFAPRP
shrunken log2 fold change: 0.512

RRIRNRPPRLPRPRPRPKHLPRP
shrunken log2 fold change: -0.403

RRIRARPPRLPRPRPRPLEPPRP
shrunken log2 fold change: 0.451

RRIRVRPPRLPRPRPRPMQCPRP
shrunken log2 fold change: 0.0658

RRIRTRPPRLPRPRPRPYWYPRP
shrunken log2 fold change: -0.574

RRIRVRPPRLPRPRPRPPTAPRP
shrunken log2 fold change: 0.43

RRIRWRPPRLPRPRPRPKDLPRP
shrunken log2 fold change: -0.0295

RRIRPRPPRLPRPRPRPELEPRP
shrunken log2 fold change: 0.219

RRIRKRPPRLPRPRPRPDWCPRP
shrunken log2 fold change: 0.292

RRIRTRPPRLPRPRPRPGHIPRP
shrunken log2 fold change: -0.289

RRIRSRPPRLPRPRPRPIACPRP
shrunken log2 fold change: 0.12

RRIRSRPPRLPRPRPRPLDMPRP
shrunken log2 fold change: 0.0557

RRIRPRPPRLPRPRPRPSVLPRP
shrunken log2 fold change: 0.0488

RRIRKRPPRLPRPRPRPQRAPRP
shrunken log2 fold change: 0.944

RRIRKRPPRLPRPRPRPEPGPRP
shrunken log2 fold change: 0.608
